Source: patent US20200392219A1, “EXTRACELLULAR VESICLES COMPRISING MEMBRANE-TETHERED TGF-BETA, COMPOSITIONS AND METHODS OF USE THEREOF” (TRUSTEES OF TUFTS COLLEGE, priority 2017, published 2020)

Test system: CD4+ T cells (ConA-stimulated PBMC)
Test: ConA mitogen-induced CD4+ T cell proliferation in CFSE-stained PBMC (PBMC responder/suppression assay)
Assay type: cell-based, canine
Settings: for effect of pre-treating WJ-MSC EV on their suppression of CD4+ T cell division: 0.1% Triton-X, 2 μg/ml RNAse A, proteinase K 30 min 37°C, heparinase 0.006 U/ml 3 hours, 10^4 EV:1 PBMC
Method: Serum-free culture medium from canine Wharton's Jelly mesenchymal stem cells (WJ-MSC: CD44^+, CD90^+, CD34^−, CD45^−, MHCII^−, n=6 cell lines) was collected after 48 hours, and extracellular vesicles (WJ-EV) were isolated by differential centrifugation. WJ-EV output was assessed using single vesicle nanoparticle tracking analysis (NTA). CFSE-stained peripheral blood mononuclear cells (PBMC) were collected from healthy dogs (n=8), exposed to Concanavalin A mitogen (ConA; 5 μg/ml) and co-incubated with WJ-MSC (1:10) across transwell membrane (0.4 μm pore size) or with WJ-MSC EV (1:10^4)±10 μM SB431542 (TGFβR1 inhibitor) or TGF-β neutralizing (e.g., inhibiting) antibody (Ab) for 72 hours. Analysis of CFSE fluorescence using FlowJo (v7.6.5) yielded % CD4^+ cells that had undergone division (T-cell proliferation).
PBMC responder assay: Twelve healthy adult purpose-bread Beagle dogs (5 neutered males, 7 spayed females) housed at the Laboratory Animal Medicine department at the Cummings School of Veterinary Medicine at Tufts University served as blood donors under an approved protocol. […] or WJ-MSC were tested in triplicate against a minimum of 3 different PBMC donor cell samples (see Figure legends for ‘n’ of each experiment). Healthy status was confirmed by clinical examination, and hematological and serum biochemical testing within six months of blood sampling. All dogs were fasted for 12 hours prior to peripheral blood sampling. Peripheral blood samples were taken via jugular venipuncture using a 21 gauge needle, and blood was immediately placed into an EDTA collection tube and rotated 1-2 times gently. Blood was diluted 1:1 with cold PBS or centrifuged (1300×g, 10 min) prior to dilution 1:2 in PBS, followed by density-gradient centrifugation using Ficoll-Paque (density 1.077; GE Healthcare Life Sciences) to harvest peripheral blood mononuclear cells (PBMC). PBMC were washed in RPMI (Life Technologies) supplemented with 10% heat-inactivated fetal bovine serum (Gibco), […] (Life Technologies), 100 μM β-mercaptoethanol (Sigma-Aldrich), 10,000 U/ml penicillin-streptomycin, 2 mM L-glutamine (Life Technologies), and 2.2 mg/mL of sodium bicarbonate (Thermo Fisher Scientific) (complete RPMI, ‘cRPMI’). For mitogen induced lymphocytes proliferation assays, PBMC were suspended in 1 ml cRPMI and 0.5 μof 10 mM carboxyfluorescein succinimidyl ester (CFSE, Thermo Fisher Scientific) and were incubated (10 min). For initial characterization of WJ-MSC effects on responder PBMC, PBMC were plated on a 24-well plate on the top of a 0.4 μm Transwell (Corning) across from the WJ-MSC in a 10:1 ratio (PBMC:MSC) in a total volume of 1 ml medium (n=3 technical replicates/sample). All plates were incubated at 37° C. in the dark for 72 hours prior to analysis.
Dose-responses of TV MSC-EV: To investigate the dose response of PBMC to WJ-MSC EV, the […] were plated on a 96-well plate in cRPMI with addition of 1 mM ATP, with or without 5 μg/ml Concanavalin A (ConA, Sigma-Aldrich). Responder PBMC were incubated with WJ-MSC EV in a total volume of 200 μL medium (n=3 technical replicates per sample). PBMC were incubated with WJ-MSC EV in a 1:10^2, 1:10^3, or 1:10^4 (PBMC:EV) ratio. After 72 hours of incubation, the PBMC were collected and surface stained for CD4 (rat anti-canine CD4-Alexa 647, clone YKIX302.9, AbD Serotec). Cells were stained for 30 minutes, washed twice with cold PBS and 5% FBS, and resuspended in 200 μl PBS and 5% FBS with 5 μl 7AAD (Becton Dickinson) for analysis by flow cytometry (Accuri C6, Becton Dickinson). The effect of WJ-MSC or WJ-MSC EV on CD4-positive (CD4^+) T cell (i.e., T helper cell) proliferation (percentage of cells proliferating, number of divisions for proliferating cells) was measured by evaluating CFSE fluorescence utilizing the FlowJo® proliferation platform (FlowJo, V10, Ashland, Oreg.) after gating on the viable CD4^+ lymphocyte population. […]

B1: RNase: RNAse A enzyme used to pre-treat EV (protein, UniProt P61823 27-150, looked up)
Ribonuclease pancreatic: KETAAAKFERQHMDSSTSAASSSNYCNQMMKSRNLTKDRCKPVNTFVHESLADVQAVCSQKNVACKNGQTNCYQSYSTMSITDCRETGSSKYPNCAYKTTQANKHIIVACEGNPYVPVHFDASV
effect of pre-treating WJ-MSC EV on their suppression of CD4+ T cell division: reduced

B2: heparinase: heparinase III (Sigma), disrupts heparin sulfate side chains on beta-glycan (protein, UniProt Q59289 25-659, looked up)
Heparin-sulfate lyase: QSSSITRKDFDHINLEYSGLEKVNKAVAAGNYDDAAKALLAYYREKSKAREPDFSNAEKPADIRQPIDKVTREMADKALVHQFQPHKGYGYFDYGKDINWQMWPVKDNEVRWQLHRVKWWQAMALVYHATGDEKYAREWVYQYSDWARKNPLGLSQDNDKFVWRPLEVSDRVQSLPPTFSLFVNSPAFTPAFLMEFLNSYHQQADYLSTHYAEQGNHRLFEAQRNLFAGVSFPEFKDSPRWRQTGISVLNTEIKKQVYADGMQFELSPIYHVAAIDIFLKAYGSAKRVNLEKEFPQSYVQTVENMIMALISISLPDYNTPMFGDSWITDKNFRMAQFASWARVFPANQAIKYFATDGKQGKAPNFLSKALSNAGFYTFRSGWDKNATVMVLKASPPGEFHAQPDNGTFELFIKGRNFTPDAGVFVYSGDEAIMKLRNWYRQTRIHSTLTLDNQNMVITKARQNKWETGNNLDVLTYTNPSYPNLDHQRSVLFINKKYFLVIDRAIGEATGNLGVHWQLKEDSNPVFDKTKNRVYTTYRDGNNLMIQSLNADRTSLNEEEGKVSYVYNKELKRPAFVFEKPKKNAGTQNFVSIVYPYDGQKAPEISIRENKGNDFEKGKLNLTLTINGKQQLVLVP
effect of pre-treating WJ-MSC EV on their suppression of CD4+ T cell division: reduced EV suppression

B3: heat-inactivated heparinase: heat-inactivated heparinase (control) (protein, UniProt Q59289 25-659, looked up)
Heparin-sulfate lyase: QSSSITRKDFDHINLEYSGLEKVNKAVAAGNYDDAAKALLAYYREKSKAREPDFSNAEKPADIRQPIDKVTREMADKALVHQFQPHKGYGYFDYGKDINWQMWPVKDNEVRWQLHRVKWWQAMALVYHATGDEKYAREWVYQYSDWARKNPLGLSQDNDKFVWRPLEVSDRVQSLPPTFSLFVNSPAFTPAFLMEFLNSYHQQADYLSTHYAEQGNHRLFEAQRNLFAGVSFPEFKDSPRWRQTGISVLNTEIKKQVYADGMQFELSPIYHVAAIDIFLKAYGSAKRVNLEKEFPQSYVQTVENMIMALISISLPDYNTPMFGDSWITDKNFRMAQFASWARVFPANQAIKYFATDGKQGKAPNFLSKALSNAGFYTFRSGWDKNATVMVLKASPPGEFHAQPDNGTFELFIKGRNFTPDAGVFVYSGDEAIMKLRNWYRQTRIHSTLTLDNQNMVITKARQNKWETGNNLDVLTYTNPSYPNLDHQRSVLFINKKYFLVIDRAIGEATGNLGVHWQLKEDSNPVFDKTKNRVYTTYRDGNNLMIQSLNADRTSLNEEEGKVSYVYNKELKRPAFVFEKPKKNAGTQNFVSIVYPYDGQKAPEISIRENKGNDFEKGKLNLTLTINGKQQLVLVP
modifications: heat-inactivated
effect of pre-treating WJ-MSC EV on their suppression of CD4+ T cell division: absent

B4: TGF-β3: recombinant human TGF-β3 (Sigma) (protein, UniProt P10600 301-412, looked up)
Transforming growth factor …: ALDTNYCFRNLEENCCVRPLYIDFRQDLGWKWVHEPKGYYANFCSGPCPYLRSADTTHSTVLGLYNTLNPEASASPCCVPQDLEPLTILYYVGRTPKVEQLSNMVVKSCKCS
suppression of mitogen driven T cell division by exogenous TGF-β (5 ng/ml added to ConA stimulated PBMC): not | suppression of mitogen driven T cell division by exogenous TGF-β (10 ng/ml added to ConA stimulated PBMC): suppressed | suppression of mitogen driven T cell division by exogenous TGF-β (50 ng/ml added to ConA stimulated PBMC): suppressed

B5: proteinase K: protease used with RNAse A to pre-treat EV (protein, UniProt P06873 106-384, looked up)
Proteinase K: AAQTNAPWGLARISSTSPGTSTYYYDESAGQGSCVYVIDTGIEASHPEFEGRAQMVKTYYYSSRDGNGHGTHCAGTVGSRTYGVAKKTQLFGVKVLDDNGSGQYSTIIAGMDFVASDKNNRNCPKGVVASLSLGGGYSSSVNSAAARLQSSGVMVAVAAGNNNADARNYSPASEPSVCTVGASDRYDRRSSFSNYGSVLDIFGPGTSILSTWIGGSTRSISGTSMATPHVAGLAAYLMTLGKTTAASACRYIADTANKGDLSNIPFGTVNLLAYNNYQA
effect of pre-treating WJ-MSC EV on their suppression of CD4+ T cell division: reduced
